For 1 substance, percent of total anti-flag band intensity in APOB+ fractions results are on record in PMC7502524.

This assay has as its target PM20D1-flag (epitope-tagged, AAV serotype 8) (mouse) (UniProt Q8C165). The assay is described as follows: SEC. For orientation: In gel filtration, larger molecules generally elute earlier.
Chain of UniProt Q8C165 (Q8C165 25-503): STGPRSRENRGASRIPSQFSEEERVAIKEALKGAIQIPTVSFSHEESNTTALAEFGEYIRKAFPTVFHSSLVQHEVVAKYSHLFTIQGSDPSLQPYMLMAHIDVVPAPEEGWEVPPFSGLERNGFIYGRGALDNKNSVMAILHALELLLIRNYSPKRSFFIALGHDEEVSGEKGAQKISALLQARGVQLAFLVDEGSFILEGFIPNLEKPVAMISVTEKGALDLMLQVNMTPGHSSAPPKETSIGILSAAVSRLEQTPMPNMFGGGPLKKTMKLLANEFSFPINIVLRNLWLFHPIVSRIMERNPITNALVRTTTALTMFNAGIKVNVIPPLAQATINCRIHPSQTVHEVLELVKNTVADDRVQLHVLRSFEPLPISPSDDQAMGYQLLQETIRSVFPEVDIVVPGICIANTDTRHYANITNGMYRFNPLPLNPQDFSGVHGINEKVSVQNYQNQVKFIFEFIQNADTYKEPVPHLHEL

For “APOB (APOB-containing low-density lipoproteins of mouse plasma) (natural protein)”, the percent of total anti-flag band intensity in APOB+ fractions was determined as 91%.
